This is an account of results in PMC11069190.

Common to all, as to assay: EMSA
In data set [1] the target is T1, Abf1 (Saccharomyces cerevisiae) (UniProt P14164).
T1 sequence: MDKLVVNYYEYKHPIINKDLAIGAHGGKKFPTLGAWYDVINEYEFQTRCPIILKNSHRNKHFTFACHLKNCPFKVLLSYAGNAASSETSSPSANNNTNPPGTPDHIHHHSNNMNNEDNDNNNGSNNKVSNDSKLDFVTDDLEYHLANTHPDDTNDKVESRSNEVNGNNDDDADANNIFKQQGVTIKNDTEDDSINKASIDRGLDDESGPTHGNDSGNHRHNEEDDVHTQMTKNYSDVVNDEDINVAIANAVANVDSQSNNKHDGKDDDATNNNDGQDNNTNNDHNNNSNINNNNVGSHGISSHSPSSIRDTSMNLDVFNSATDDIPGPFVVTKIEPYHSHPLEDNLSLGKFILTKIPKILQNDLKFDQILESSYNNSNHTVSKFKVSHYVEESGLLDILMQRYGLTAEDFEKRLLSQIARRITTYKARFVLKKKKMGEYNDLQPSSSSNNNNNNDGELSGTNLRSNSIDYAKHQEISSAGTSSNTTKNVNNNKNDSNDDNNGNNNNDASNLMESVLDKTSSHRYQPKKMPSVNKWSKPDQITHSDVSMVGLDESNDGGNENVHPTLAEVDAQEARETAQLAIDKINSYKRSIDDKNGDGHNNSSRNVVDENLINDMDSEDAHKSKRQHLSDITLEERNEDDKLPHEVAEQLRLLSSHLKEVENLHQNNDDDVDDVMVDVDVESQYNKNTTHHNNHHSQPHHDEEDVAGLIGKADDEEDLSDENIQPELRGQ
The settings on record: apparent Kd on reconstituted nucleosome; 10.7 mM HEPES-KOH pH 7.9, 4 mM Tris-Cl, 80.9 mM NaCl, 19.1 mM KCl, 5.4 mM MgCl2, 0.2 mM Mg acetate, 0.05% NP-40, 10% glycerol, 0.2 uM ZnCl2, 0.2 mM EDTA, 0.4 mM.

The target of data set [2] is Cbf1 (Saccharomyces cerevisiae) (UniProt P17106). The following applies: apparent Kd on reconstituted nucleosome; 10.7 mM HEPES-KOH pH 7.9, 4 mM Tris-Cl, 80.9 mM NaCl, 19.1 mM KCl, 5.4 mM MgCl2, 0.2 mM Mg acetate, 0.05% NP-40, 10% glycerol, 0.2 uM ZnCl2, 0.2 mM EDTA, 0.4 mM.
Data set [3] has as its target T2, Reb1 (Saccharomyces cerevisiae) (UniProt P21538).
T2 sequence: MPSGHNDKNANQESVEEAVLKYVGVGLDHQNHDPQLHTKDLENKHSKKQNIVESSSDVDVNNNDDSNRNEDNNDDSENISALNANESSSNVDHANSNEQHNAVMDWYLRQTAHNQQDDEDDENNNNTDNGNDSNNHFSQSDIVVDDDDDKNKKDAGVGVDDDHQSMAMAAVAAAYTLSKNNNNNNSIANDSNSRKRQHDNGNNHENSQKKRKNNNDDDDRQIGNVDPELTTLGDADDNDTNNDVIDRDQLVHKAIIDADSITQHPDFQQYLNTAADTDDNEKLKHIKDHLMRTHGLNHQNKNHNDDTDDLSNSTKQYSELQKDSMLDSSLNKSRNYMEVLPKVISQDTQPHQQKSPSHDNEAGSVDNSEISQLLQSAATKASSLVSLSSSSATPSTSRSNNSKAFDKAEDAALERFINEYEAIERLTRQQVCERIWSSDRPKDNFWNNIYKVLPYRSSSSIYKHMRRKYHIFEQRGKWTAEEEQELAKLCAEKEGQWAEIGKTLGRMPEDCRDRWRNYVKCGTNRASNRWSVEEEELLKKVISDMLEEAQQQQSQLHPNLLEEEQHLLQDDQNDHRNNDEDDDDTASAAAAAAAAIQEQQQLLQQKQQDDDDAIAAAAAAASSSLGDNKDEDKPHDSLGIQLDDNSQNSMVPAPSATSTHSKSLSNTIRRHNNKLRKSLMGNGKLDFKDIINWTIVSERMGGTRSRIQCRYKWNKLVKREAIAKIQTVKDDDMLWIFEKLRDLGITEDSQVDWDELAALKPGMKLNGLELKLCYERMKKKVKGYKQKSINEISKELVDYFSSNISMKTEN
The following applies: apparent Kd on reconstituted nucleosome; 10.7 mM HEPES-KOH pH 7.9, 4 mM Tris-Cl, 80.9 mM NaCl, 19.1 mM KCl, 5.4 mM MgCl2, 0.2 mM Mg acetate, 0.05% NP-40, 10% glycerol, 0.2 uM ZnCl2, 0.2 mM EDTA, 0.4 mM.

The target in data set [4] is T3, Rap1 (Saccharomyces cerevisiae) (UniProt P11938).
T3 sequence: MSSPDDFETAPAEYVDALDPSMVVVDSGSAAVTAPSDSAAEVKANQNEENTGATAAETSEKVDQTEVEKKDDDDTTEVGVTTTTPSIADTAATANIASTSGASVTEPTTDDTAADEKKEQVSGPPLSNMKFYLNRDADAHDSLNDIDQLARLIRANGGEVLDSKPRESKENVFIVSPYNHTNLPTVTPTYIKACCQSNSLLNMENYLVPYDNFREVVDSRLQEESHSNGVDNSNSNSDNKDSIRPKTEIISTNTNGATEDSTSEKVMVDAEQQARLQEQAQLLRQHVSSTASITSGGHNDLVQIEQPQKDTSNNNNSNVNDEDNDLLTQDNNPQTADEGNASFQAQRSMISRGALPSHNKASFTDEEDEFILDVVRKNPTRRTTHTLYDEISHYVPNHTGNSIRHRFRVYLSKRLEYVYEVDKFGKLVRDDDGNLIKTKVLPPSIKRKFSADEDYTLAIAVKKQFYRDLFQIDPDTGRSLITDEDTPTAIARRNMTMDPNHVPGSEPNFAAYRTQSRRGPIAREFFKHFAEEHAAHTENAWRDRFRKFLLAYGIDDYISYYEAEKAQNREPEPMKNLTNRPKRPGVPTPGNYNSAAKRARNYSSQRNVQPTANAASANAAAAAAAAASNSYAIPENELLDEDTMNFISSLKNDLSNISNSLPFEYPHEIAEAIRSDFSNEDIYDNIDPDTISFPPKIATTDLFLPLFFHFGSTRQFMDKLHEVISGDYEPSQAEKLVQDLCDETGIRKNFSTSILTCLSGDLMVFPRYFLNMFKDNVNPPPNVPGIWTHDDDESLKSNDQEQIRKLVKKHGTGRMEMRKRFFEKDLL
The settings on record: 10.7 mM HEPES-KOH pH 7.9, 4 mM Tris-Cl, 80.9 mM NaCl, 19.1 mM KCl, 5.4 mM MgCl2, 0.2 mM Mg acetate, 0.05% NP-40, 10% glycerol, 0.2 uM ZnCl2, 0.2 mM EDTA, 0.4 mM.

Sequence of UniProt P17106 (P17106 whole entry): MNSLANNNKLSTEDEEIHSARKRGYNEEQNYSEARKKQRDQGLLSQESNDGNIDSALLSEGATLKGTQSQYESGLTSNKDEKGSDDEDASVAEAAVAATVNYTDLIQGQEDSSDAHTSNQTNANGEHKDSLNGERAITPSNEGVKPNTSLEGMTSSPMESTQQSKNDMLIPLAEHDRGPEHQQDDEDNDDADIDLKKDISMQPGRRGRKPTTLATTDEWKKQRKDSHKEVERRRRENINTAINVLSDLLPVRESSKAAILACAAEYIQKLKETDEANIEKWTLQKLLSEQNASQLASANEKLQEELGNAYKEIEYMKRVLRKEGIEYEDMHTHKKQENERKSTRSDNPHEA

Turning to “GGTCGCTGTTCAATACATGCACAGGATGTATATATCTGACACGTGCCTGGAGACTAGGGAGTAATCCCCTTGGCGGTTAAAACGCGGGGGACAGCGCGTACGTGCGTTTAAGCGGTGCTAGAGCTGTCTACGACCAATTGAGCGGCCTCGGCACCGGGATTCTCCAGGGCGGCCGCTTATCGTATTGCATGATATGGTGATGACCGCGGACCTGCAGGCATGCAAGC (double strand) [20-NC-60Abf1bs nucleosome]”, in data set [1], the Kd was 1 nM.

For the sequence “GGTCGCTGTTCAATACATGCACAGGATGTATATATCTGACACGTGCCTGGAGACTAGGGAGTAATCCCCTTGGCGGTTAAAACGCGGGGGACAGCGCGTACGTGCGTTTAAGCGGTGCTAGAGCTGTCTACGACCAATTGAGCGGCCTCGGCACCGGGATTCTCCAGGGCGGCCGCTGTCACGTGGGCTAGTAATGGTGATGACCGCGGACCTGCAGGCATGCAAGC (double strand) [20-NC-60Cbf1bs nucleosome]”, the Kd in data set [2] came out at 7.8 nM.

For “GGTCGCTGTTCAATACATGCACAGGATGTATATATCTGACACGTGCCTGGAGACTAGGGAGTAATCCCCTTGGCGGTTAAAACGCGGGGGACAGCGCGTACGTGCGTTTAAGCGGTGCTAGAGCTGTCTACGACCAATTGAGCGGCCTCGGCACCGGGATTCTCCAGGGCGGCCGCTCGGGTAAAGCATCACCATGGTGATGACCGCGGACCTGCAGGCATGCAAGC (double strand) [20-NC-60Reb1bs nucleosome]”, the Kd in data set [3] was determined as 4.9 nM.

In the case of “GGTCGCTGTTCAATACATGCACAGGATGTATATATCTGACACGTGCCTGGAGACTAGGGAGTAATCCCCTTGGCGGTTAAAACGCGGGGGACAGCGCGTACGTGCGTTTAAGCGGTGCTAGAGCTGTCTACGACCAATTGAGCGGCCTCGGCACCGGGATTCTCCAGGGCGGCCGCTACACCCATACATTTCCATGGTGATGACCGCGGACCTGCAGGCATGCAAGC (double strand) [20-NC-60Rap1bs nucleosome]”, the Kd in data set [4] worked out at 0.8 nM.
